Experiment: protease stability score; higher = more stable; yeast display proteolysis, trypsin and chymotrypsin;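 further: relative to predicted unfolded state with 0 unfolded-like and 1 meaning tenfold more protease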
Sequence “SETEENAEHVVREWFEMITTGDEDEVLRLMDPHVRVRIGDKIIHGREIFLAHMRHWRIKNKHFEIEHMHFYGDKAVLDGRLVGEETVDGKHRTYDRRVDFNLVKIDGKWHIREFHVD” has a protease stability score of 1.52.
Work on “SEEEEFLEKLMREFVHDLLTGDEDRIRELADPHVKFEMDVNGVRFRAHGREEMLRELRRFWKEIRVKHIQTHDVKNVGDKAHSDVREVVEVDGREERHESEIIVVTINGRMQSVVLIFK” yielded a protease stability score of 1.52.
For “DEEQEILKEMAKEILHMLQTGDWKRFLELADPNVKNIVNGREVHGREIVVEYIRKMGIDHHILHDVHIQGDKIHIHGTLEVNGKRIEVEIEIVVVNGRVKMIIFILK”, the protease stability score was 2.05.
“DEWKEDSRRAIELELRHLQTGDEDLTEKYADPHARVHIGDKEFHGRDHYIETLRRMGIKHVEVREIREQGDFLKMDVHVNVDGRELTVHFVMRKVNGRWRIHMIEVR” gave a protease stability score of 1.11.
With “SEEDRFLYEFARTILHLFETGNEEIFHKLADPHVRLHVNGVDNVGWERSYKFFHEEVRELRFHTWRIRDHRTFENRAHLDIEVDTEFNGVRLHLKSTLDVVVVNGRLKFFHIKQE” the protease stability score was 0.424.
With “NERDERVEELMKLWFESLRTGDWRQMRNLLDPHARVIMLVGDKHVELHGWEAMLLLIHQFRNIRLRIDSTRLQGDKLEIEGTSEFDGKHRNVVIEIQVINGRIHTIKYIED” the protease stability score was 2.1.
Sequence “SEEEKILKEIAHLLIRSLITGDWKILRDLMDPHTKIHILQGDKVHNFHGWKAMTETLKQKLDRIDHVNFELRHMEVFDGRVHIEGVLHLNFDGQERFTEVRIIVVVIDGKLKEFELRIH” has a protease stability score of 2.16.
“SEHEEDLERFAREWIHIFKTGDFKMFNKLADPNVRVHINGKDNHGMEQWKHLKDRHEKELGVDRVDIHVDDVRFIGDKIEMDVTVRQGEFSTRWHVELIVVDGRLKHVSFHVR” showed a protease stability score of 1.16.
In the case of “SEDEEHARRVLEEMIDARLTGDEDKYETLLDPNVRFHQGEWSFHGMEELSRIVHHEARRIDHHEVRLKELRVVNGRVHSRTLLKLDFNGVEYRLKIELIITKVDGRWLLKEVRVR”, the protease stability score is reported as 1.25.
With “DQEHRDLHKLAHLILEYLVTGDFEMFEHLADPNVKVNINGKEMHGMERMREHLELIWKELRIHHLHITEVTIQGNKVEIDGRWDGKVNGQHRIEERHFYLVTVNGRIRHISEEIV” the protease stability score was 1.37.
Work on “RSEEHEAKDKVREWVEAYLTGDEDHLRRLHDPDMRFNWNGVEIHGMEEFSHWMHKYMYELGVDHTHVTVRHIEFYGDKIHADTKLFIRQGDKEREHHSQVHIEVINGQFKRLEIREH” yielded a protease stability score of 0.829.
For “SELEEFARKLMHIYSFAFLTGDWRLHEHMLDPHVRQEQGDKELHGMEDLERLMKRIDHVKHVEMLIEHLEVQGDKVRAHGKWRLIGTVNGQDVDVTIRAHFNIEKFDGVWVVREVRLL”, the protease stability score was 2.58.
“SEFEEIAHIMIRLFHHAMRTGDEHKLMKNFDPNTRIDVNGVEEHGRENLERHLHHLSRHLRVNDFKVKDVKDVDGRVVIDGIWNGEINGQETDVEVEVIIIKINGQWYIQHLKIK” showed a protease stability score of 1.03.
Work on “NEDEEMIKTAIELLLRTWKTGDEHSLTELLDPHVRVHINGVDLHGRHAIHWLSRHMRFEEIRVDHFEIVNGRVHLETKVRIHYGDKSDTVESHVISLKVDGKWKTQRVQYH” yielded a protease stability score of 0.954.
“DEDEELARKVLKVWNQAVQTGDEEVLHKLFDPNVQLVQGDKQLHGMESLVRFLRRYDVVRHVDSDVERIHVQGDKIRVTIRLIVDMEINGKRVRTELTIHFIIEKIDGRWVLRELHFE” showed a protease stability score of 0.964.
With “EDDERELKLMLELLLHSQHTGDFKEAERLADPNARFEFNGREFHGREQFHSFIWKLGVDHSEVKRVRLQGEFLTLHIKHNVNGKEIDMIWYNVKVNGKWLIHHLEVR” the protease stability score was 1.21.
“TEEETRLREFMDRLLKIITTGDEKRFKDLADPHVRLFIDGVTIHGRDEAHEMWEIFGMKVKSTHVHEIHIQGDKVNIDTRLSGHFNGRDHIWEAHIYVVKIDGRWILEYIEIR” showed a protease stability score of 1.94.
Sequence “DEEEEYYRVAIEIWLRVMMTGDPKYFDRLADPHVRVEQGDKRLHGMEDWSKRLEHMRIDHINIHQFKVVNGKIHVDTEVRGDVDGVEFRTRMELIFEKVDGRWILRRIHIN” has a protease stability score of 2.71.
In the case of “SEIEEESEEHLNLYMHAMHTGDWHTLERLADPNVRMDVNGQEHHGREEFVKVLVHMIEHLGIDHVRVKHLDLQGDKLHADTTEEVNGRRIHTILDVTKINGRWFITSLEIH”, the protease stability score is reported as 0.495.
Sequence “DELEHFALKFAEEWLQHYLTGNEEMISKLHDPHVKLHIGDKDLIGWEKFEEFLRETLSRVDHLHFNIRSVQSQGNKIVFDGKYIVIQGDKRYEFDIEFHIVVFNGRVHRIHYESH” has a protease stability score of 1.58.
For “STEEREVYEWVHELLNAFNTGDEDFYYERMDPHVRFESQFNGKELDIVGREKVLKWTKTFWDDLGVDHSKLRSFRIQGDKLILHMEVTINGRHIQVDFFHVIVDGKLHSEEIRIH”, the protease stability score was 0.649.
“DREERDTREALRILHEISRTGDEELLDRQMDPDVKIDFENHEFHGREEASTLIHEIYQKWGLSNVEMDIKRVRTVGEKVDIDGRLHFNGVTRDIRLINLKVNGKWFIHSIIFR” showed a protease stability score of 1.2.
“DEDEEDIRKAVKDFSENFQTGDEDRFKELADPNDRMHVNGREVHGRENIVKSLREEWKRLGVDHIHFEVRRITVQGEKIIVFSFLRIDNENERHHEDVLIIMRKVDGRWMIRTIRVR” gave a protease stability score of 1.45.
Sequence “SDEEEILRRLMQEYYEIFFTGNEEFLHRLADPHVRFLVNGQWYHGREQFTRMFVELLEKLGAKHIELDRHTVRIIDGRIEIIIHTTIKVDGKEHTMHIIVNVEKINGRWILRSMEMEVR” has a protease stability score of 1.34.
For “SEEDEDAMRSAEFLVKKLNTGDEDWYQHLFDPHTKLEIGNFTSHGMHVSLKQWREMGADHVHVQDIDVFDGRVHVRTHIHVNGQTVEVLIILVKVNGRWIVERIRMK”, the protease stability score was 0.66.
Work on “DREEEELKRIMHLFINFVETGDWELILKLMDPNVKMQIDFNGKIFRNHGRDALEYTIRLMGIDHIEIHHQDVIDGKLHIDVTVHIDGQDLRVHIHVIVIDGRIREVRHRTH” yielded a protease stability score of 1.23.
For “SESEEEARRKSEVFLRHLRTGDFREFIKLADPHVLNIFPGVNHVGREHWRRLELHLRRREFRVHDERLDIQGDKVRINIDLETDVEFDGKELKFRTLILIEAEKVDGRWRVTEVSEEPR”, the protease stability score was 0.524.
“DEEERHVRELLREWIESLFTGDEHRLMELADPHARSHIDGVDLHGRENMHRMIHELRITDMRIRRISVRLVGDFVDVRVDGESDIYFNGQRLHTQIDIVIISSKIDGKWVIEEVHHNIE” gave a protease stability score of 0.763.
With “TEEEHNVRIALSLYIETFKTGNEEVLRRRLDPNARLIFNGRDLHGRELIEDWIHEFHEKVPGLQIHRHEVKDWHVQGNKIDLDVHIDGVFDGKQTETRVILHILKVDGQWIMTVIEIR” the protease stability score was 1.35.
In the case of “SEEEELVREHIKRVIHSYETGDWKSFLELFDPNVRLRVGDKELHGRELFIHWLVRLIELLGINHFELILHDVELQGNKAHSDIHSNLTVGDKTEHRKVHLFNLKVNGRWRTQSEHIE”, the protease stability score is reported as 1.36.
For “DEMDEHARDLFELLLRIWLTGDEHELRELADPHVRIHVGDKNHVGMDKFAHEFIRHVQERGVRIEIRIRDHHAINGVSHSDGEIVLNYDGREYRMDTKIIMVIYNGKVKELRFHIR”, the protease stability score was 1.39.
“DELEELAEKIIRRLSELLLTGDFRELERFADPHTRVDINGKEFHGREFFSKLWLEMVRRFDHIEVHVHHMEIQGDKVFIDSRLHLLQGDKKEDREVLFILRKIDGRWILTVWKIR” showed a protease stability score of 2.32.
“SEDERDARELMEIEIRAKRTGDEDTLERLMDPHMRTDINGKELVGREVLEWERKRVDHIHDFRIHHVTSVNGRLDIDASLRLTVDGVEETMRFRILTRKVNGRWIVEFLIVK” gave a protease stability score of 0.985.
With “SEEEKHFEDALERWIRTTDTGDETKLIELMDPHVKVDINGQEFHGWKIVFRFMHHLIRRIDHIIIEVKHLRVYDGRVELDGIIRVRFDGRQMEYNSRFIALKFNGVWLLHSMHFH” the protease stability score was 1.87.
“TEDEHHEELIAKELFHNFLTGNEDLLSEMADPNTKSDIDGKHDVGREEMSRSLIEFLDKMGIKHLVLTDHRAVNGKVILHERVHVNGRDIEVNLTWDVWNGRIKRVEIRITHR” showed a protease stability score of 0.982.
In the case of “SEEKQDVDEFIKRVIETLETGDWRNRHDLLDPNVRIDIDGVELIGRHIALELDWYFLRHARVRMYIRHVNVQGEYMDVDGRLHIHQGDKNIHIETRLIVHKINGRWLIKSIELR”, the protease stability score is reported as 2.87.
Sequence “DHWEELIERALDFHRSLLRTGDPEVLERQADPNAKFVVGDKTLHGRESVSDWMNRVKNIQIHMRDLHVIDGKIEMHVQMHYDGRTSHTRLIADKVDGRWIYRSVSVE” has a protease stability score of 0.69.
In the case of “DDEEREVHKATEDWFKLVKTGNEEVRHELLDPHTRLIIGDKEFHGREELLRWERELGYKFKTFIITDIKVQGNKAIIHGVDVGTINGVERHLDVRLLILKVNGKWITREIEVR”, the protease stability score is reported as 1.62.
Sequence “SEKEKLYKDMFRLWAENHRTGNEKKLLEMADPNAQFIFNGREFHGRELIKEEIDEWINRIKNVRVDIHRVEIQGEKIHVITRLHINGQDLETKVELIIVDGQLHLERIHID” has a protease stability score of 0.759.
In the case of “SEDEREAIRFLELWVRESRTGDEDSTDRLADPHTRVEFENHHSVGREHAVTFLIHLRTHHFEIHEVQVFNGRIEMRLHVDGIFNGRRYRSDVLLVVLKIDGQWLLHSIRFH”, the protease stability score is reported as 1.52.
For “DESEKYLKDAVEILIRVIRTGDEHTMKELLDPNVRLHAENHESHGRELLEWWTRRIDHVNDSKIEDMRTVGDYVELDMRLHTVFNGQTIDIKTTFIIIKVNGKWQLRSVHIH”, the protease stability score was 1.26.
For “SEEEQKLRNMAKLTFKDLITGDEEHFEKLADPHTRFNVGNYERHGMRLHLEWYLEWLTRIKGLKLRLELHDVRVVDGRAISDTTLDVHIGDKHIHQDIKLLLVIVDGRIKELEIRFV”, the protease stability score was 1.22.
Sequence “NDLERDAEHMLKLLIEAHLTGNEDIFEEFMDPNTRLVVGDKDNHGREFAEDYFKEWRVKHVRLKHYRSIGNYVEFDTETNVHVNGRDIRTETKITIVKIDGRWLLKVLIFG” has a protease stability score of 1.72.
For “DKEEEHMREMVRLYQHIRLTGNEEVIRNLADPTMRFDLDFEEKRVTAIGREQYLRVTDKLKKDLGLENIEVRVKEMEAFDGVIHINGHERFNGRSYDTHIWLVIVNGRWEFIRIEIR”, the protease stability score was 0.116.
In the case of “DEDTRMNELFVRLFYELLTTGDEEHIHEMFDPHARLDFDGQQYHGREDAVRKMHELSRRLGIKHIEIREFRKVGDWANLHGKIYVNGQEYELHVILHKVDGRWITRDIRIK”, the protease stability score is reported as 1.3.
Work on “DEDTREAEKMYRLFRHLFLTGDWEHTYQLADPHVRTDFNGVEWHGRELALEILLHFLEILGVDHITLKRQEIHIVDGRLLVILHLELRAENHSEDLLIIVIMNKFDGRWHVESEEIKVR” yielded a protease stability score of 0.539.
Work on “KDTKRALDELSELELHADETGDWRVKHELLDPHTRIVIGDKTIHGREDMLTLMKKLQEHWRLKTIEIHHTEVVDGRIDADTILVGIVDGVERELRVRLIILKINGRWIYTSIKFD” yielded a protease stability score of 1.14.
“SEEEEEIRRTIEMLLKAWQTGDEEFWMRLFDPHYRFEINGKVYHGREVMRLERRRIDYIHRVEYRIDHIDTQGDKVIIRFTLHLDVEFDGVRTELHEHRVIIIEKVNGQWRLKSVEIE” showed a protease stability score of 1.46.
Sequence “SEREDEMNHSRHLIEDSWRTGDFHITVRLADPHMKVIVGDYEYHGREHLHEVARNADIYHRIHINDWRIIGNKVEIDTEIDGFFNGVPHRTRVEIILSKINGRWILRSIIFR” has a protease stability score of 1.31.
With “DHDEREYHHFVQILIHSMRTGDWVKLEELMDPHVLIRIGDKELHGREELYRFMLQARIELEVKDYRLYGDKVELDTLLSMLIGDKLSETDSRMKLEKVDGKWIIREIFVDPETKKRLLD” the protease stability score was 1.64.
